Source: publication PMC6937325, “Tuning PFKFB3 Bisphosphatase Activity Through Allosteric Interference” (Scientific Reports, 2019)
Square brackets hold non-standard residues; d marks the D form. Ends that are not written are not given here.

Columns and labels:
[1] = target: T1, human inducible phospho-fructokinase bisphosphatase isoform 3, PFKFB3 (human, UniProt Q16875 1-520, RED-NHS label); experiment: MST; Nanotemper microscale thermophoresis; compound in MST buffer mixed 1:1 with 100 nM RED-NHS labeled recombinant PFKFB3, incubated 20 min at room temperature; details: both partners purified
T1 construct: human PFKFB3 (inducible bifunctional enzyme), GenBank AF056320.1; Plasmid from Prof; Yong-Hwan Lee; also called 6-Phosphofructo-2-kinase/fructose-2,6-biphosphatase 3; human inducible bifunctional enzyme; not shown: His tag, N-terminal, cleaved
T1 sequence (Q16875 whole entry, canonical isoform): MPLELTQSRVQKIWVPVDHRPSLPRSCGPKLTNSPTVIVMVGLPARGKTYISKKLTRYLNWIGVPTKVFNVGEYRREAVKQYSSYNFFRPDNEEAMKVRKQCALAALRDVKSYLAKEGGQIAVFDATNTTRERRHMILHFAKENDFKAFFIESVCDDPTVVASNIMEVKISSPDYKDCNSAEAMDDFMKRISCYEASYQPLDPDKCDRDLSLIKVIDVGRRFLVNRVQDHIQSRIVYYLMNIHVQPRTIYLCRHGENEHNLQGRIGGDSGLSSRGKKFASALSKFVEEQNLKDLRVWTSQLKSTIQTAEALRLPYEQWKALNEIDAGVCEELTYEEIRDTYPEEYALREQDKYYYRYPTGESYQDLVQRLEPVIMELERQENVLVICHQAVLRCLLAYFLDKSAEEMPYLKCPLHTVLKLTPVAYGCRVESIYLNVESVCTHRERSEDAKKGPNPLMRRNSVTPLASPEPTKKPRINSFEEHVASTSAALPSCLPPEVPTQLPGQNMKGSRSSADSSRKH

[2] = target: T1, human inducible phospho-fructokinase …; experiment: as above; details: both partners purified; remark: listed apart in the source

Row | Binder | Kd [1] [µM] | Kd [2] [µM]
1 | [dW]-Gly-[dY] [peptide 6 (wGy)] | 2.79 | 
2 | SFLLR-NH2 (printed as SFLLR-CONH2; picked by virtual screening of ZINC libraries; also called compound 5; source: synthetic peptide) [peptide 5 (SFLLR-CONH2)] |  | 44.4
3 | YSGFLT (printed as YSGFLT; picked by virtual screening of ZINC libraries; also called compound 4; source: synthetic peptide) [peptide 4 (YSGFLT)] |  | 18.3
